These results are taken from patent US20150087596A1.

Test [1] concerns the target human Nav1.7 (sodium channel protein type 9 subunit alpha) (human) (UniProt Q15858). Kind of test: cell-based or functional assay.
The target in test [2] is human Nav1.2 (sodium channel protein type 2 subunit alpha) (human) (UniProt Q99250). Kind of test: cell-based or functional assay.

Turning to recombinant Huwentoxin-IV (peptide), in test [1], the IC50, veratridine-induced depolarization inhibition assay came to 159 nM and the ratio of IC50 for Nav1.2 to IC50 for Nav1.7 was 2.14. In test [2], this substance returned an IC50, veratridine-induced depolarization inhibition assay of 342 nM.
